# According to patent US20210188986A1:
# Columns and labels:
# [1] = molecular target: human OX40L (recombinant, soluble) (human) (UniProt P23510); experiment: cell-based or functional assay
# [2] = molecular target: human TNFα (recombinant, soluble) (human) (UniProt P01375); experiment: cell-based or functional assay
# Sequence of UniProt P01375 (P01375 77-233 limits assumed): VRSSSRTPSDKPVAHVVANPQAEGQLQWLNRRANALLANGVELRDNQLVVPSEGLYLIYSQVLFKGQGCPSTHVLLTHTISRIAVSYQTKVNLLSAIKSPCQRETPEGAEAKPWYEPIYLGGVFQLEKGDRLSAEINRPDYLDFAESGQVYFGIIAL
# Sequence of UniProt P23510 (P23510 51-183 limits assumed): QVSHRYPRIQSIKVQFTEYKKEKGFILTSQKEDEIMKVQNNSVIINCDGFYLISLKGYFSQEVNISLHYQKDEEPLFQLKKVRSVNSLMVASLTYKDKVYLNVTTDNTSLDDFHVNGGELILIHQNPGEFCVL
"% inhibition, Jurkat OX40/TNF-NFκB reporter assay, combined hTNFα+OX40L stimulus [1] [%]","IC50 (pM), Jurkat OX40/TNF-NFκB reporter assay, combined hTNFα+OX40L stimulus [1] [pM]","% inhibition, Jurkat OX40/TNF-NFκB reporter assay, combined hTNFα+OX40L stimulus [2] [%]","IC50 (pM), Jurkat OX40/TNF-NFκB reporter assay, combined hTNFα+OX40L stimulus [2] [pM]",Substance
68,3060,,,monospecific anti-OX40L VHH ALX-0632
,,66,387,monospecific anti-TNFα VHH ATN-103
